The text below walks through data of patent publication US20040097712A1 (Amgen, published 2004).

For experiment [1], the target named is T1, human sIL-1R type II (1+2+3 domain) (human, UniProt P27930 14-343).
T1 construct: extracellular domain; also called Hu sIL-1RII; human type II receptor
T1 sequence (looked up): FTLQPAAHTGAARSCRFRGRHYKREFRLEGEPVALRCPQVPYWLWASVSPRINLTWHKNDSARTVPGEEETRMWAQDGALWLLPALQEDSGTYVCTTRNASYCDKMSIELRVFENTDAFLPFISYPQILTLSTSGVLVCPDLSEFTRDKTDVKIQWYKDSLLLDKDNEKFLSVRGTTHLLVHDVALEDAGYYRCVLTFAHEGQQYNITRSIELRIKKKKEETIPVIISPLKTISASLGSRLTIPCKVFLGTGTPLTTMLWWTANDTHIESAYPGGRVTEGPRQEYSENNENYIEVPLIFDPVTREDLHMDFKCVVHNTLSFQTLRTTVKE
Put plainly: ELISA, plates coated with the protein, anti-human Fc-HRP detection. The text has this: (§1) The antibodies were subjected to a preliminary epitope sorting experiment. ELISA plates were coated with human sIL-1R1 (1+2+3 domain), truncated human sIL-1R1 (1+2 domain), rat sIL-1R1, human sIL-1R type II, and ovalbumin (negative control). Antibody binding was detected with a horseradish peroxidase-conjugated anti-Human Fc antibody (Pierce Chemical Co., Rockford, Ill.). A check mark (√) in Table 2 represents a positive result for binding; “X” represents a negative result.
A general note: In an ELISA, binding on a coated surface is turned into a signal by an enzyme label.

Experiment [2] addresses T2, rat sIL-1R1 (1+2+3 domain) (rat, UniProt Q02955 20-338).
T2 construct: extracellular domain
T2 sequence (looked up): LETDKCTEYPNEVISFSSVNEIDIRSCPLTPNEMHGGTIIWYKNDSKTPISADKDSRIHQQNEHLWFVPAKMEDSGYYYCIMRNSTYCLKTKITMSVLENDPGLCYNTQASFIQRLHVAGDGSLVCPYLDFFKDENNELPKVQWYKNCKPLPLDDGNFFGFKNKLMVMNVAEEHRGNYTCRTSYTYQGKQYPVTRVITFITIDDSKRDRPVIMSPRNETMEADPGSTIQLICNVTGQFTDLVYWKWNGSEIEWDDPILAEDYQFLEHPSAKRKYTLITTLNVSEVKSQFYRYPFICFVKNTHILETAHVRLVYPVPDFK
The description is as above.
Source text: as §1

In experiment [3] the target is T3, ovalbumin (negative control) (UniProt P01012 2-386).
T3 construct: also called OA
T3 sequence (looked up): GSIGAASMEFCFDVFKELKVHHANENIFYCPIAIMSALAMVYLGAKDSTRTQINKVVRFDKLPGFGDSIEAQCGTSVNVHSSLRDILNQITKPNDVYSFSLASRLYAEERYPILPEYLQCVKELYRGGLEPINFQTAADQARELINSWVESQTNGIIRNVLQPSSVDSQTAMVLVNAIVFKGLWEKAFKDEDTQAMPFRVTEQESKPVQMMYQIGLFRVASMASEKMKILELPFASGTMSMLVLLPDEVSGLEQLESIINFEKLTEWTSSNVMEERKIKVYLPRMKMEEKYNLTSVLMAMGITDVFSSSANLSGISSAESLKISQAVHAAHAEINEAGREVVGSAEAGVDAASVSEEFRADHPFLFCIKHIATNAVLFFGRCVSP
The experiment is described as above.
Source text: as §1

Experiment [4] addresses T4, IL-1R1 on human cells (primary human chondrocytes; human whole blood) (human, UniProt P14778 18-569).
T4 sequence (looked up): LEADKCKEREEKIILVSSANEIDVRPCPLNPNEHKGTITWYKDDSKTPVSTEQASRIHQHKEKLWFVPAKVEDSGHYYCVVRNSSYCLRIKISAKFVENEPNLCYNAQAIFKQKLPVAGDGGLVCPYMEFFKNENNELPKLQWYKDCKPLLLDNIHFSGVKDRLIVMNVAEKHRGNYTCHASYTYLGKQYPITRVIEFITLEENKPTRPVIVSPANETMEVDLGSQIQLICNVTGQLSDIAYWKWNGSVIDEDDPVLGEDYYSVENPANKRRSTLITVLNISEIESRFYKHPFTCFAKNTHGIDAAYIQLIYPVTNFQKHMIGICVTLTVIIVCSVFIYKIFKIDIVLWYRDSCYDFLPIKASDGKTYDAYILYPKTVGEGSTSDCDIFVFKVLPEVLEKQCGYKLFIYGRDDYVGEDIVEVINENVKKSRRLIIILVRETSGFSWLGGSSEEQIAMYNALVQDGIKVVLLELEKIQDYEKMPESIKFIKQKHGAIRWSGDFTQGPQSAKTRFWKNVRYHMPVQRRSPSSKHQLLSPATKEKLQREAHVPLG
Put plainly: cell-based or functional assay.

The target of experiment [5] is T4, IL-1R1 on human cells (primary human …). The experiment is described as follows: cell-based or functional assay. This is another data set of the same source.
The target is the same in experiment [6]. The experiment is described as follows: cell-based or functional assay. This is another data set of the same source.

B1: 15C4 human anti-IL-1R1 monoclonal antibody (purified from hybridoma supernatant) (antibody, V domains shown)
VH: EVQLMQSGAEVKKPGESLKISCKGSGYSFSFHWIAWVRQMPGKGLEWMGIIHPGASDTRYSPSFQGQVTISADNSNSATYLQWSSLKASDTAMYFCARQRELDYFDYWGQGTLVTVSS
VL: EIVLTQSPDFQSVTPKEKVTITCRASQSIGSSLHWYQQKPDQSPKLLIKYASQSFSGVPSRFSGSGSGTDFTLTINSLEAEDAAAYYCHQSSSLPLTFGGGTKVEIK
notes: Human IgG kappa from HuMab mice
In the case of B1, the binding result in experiment [1] was “no binding”. Also, the binding result in experiment [2] is reported as “no binding”. Moreover, the binding result in experiment [3] is reported as “no binding”. For the same molecule, the “IC50, inhibition of IL-1β induced IL-6 production in primary human chondrocytes (Table 4B)” value in experiment [4] came out at 0.007 nM. Moreover, the “IC50, inhibition of IL-1β induced IL-6 production in primary human chondrocytes (Table 4A)” value in experiment [5] came out at 0.016 nM. For the same molecule, in experiment [6], the “IC50, inhibition of IL-1-induced IL-6 production in human whole blood, composite (pooled data)” value was found to be 0.126 nM; the “IC50, inhibition of IL-1-induced IL-6 production in human whole blood, donor 1047” value turned out to be 0.126 nM; the “IC50, inhibition of IL-1-induced IL-6 production in human whole blood, donor 1319” value turned out to be 0.111 nM.
